Source: the DeepSol protein solubility set

Test: soluble on expression in E. coli; label from the status in PepcDB or PDB records

Sequence	soluble on expression in E. coli
MGSDKIHHHHHHMKTWTPDLSRSDGPRYLAIADVIEMDLKSGRLLVGDRLPPQRDLAKRLAIDFTTVARGYVEAQKRGLVATHVGRGTFVTGGPEKERRGFVSEAALDARRMSVVDFSMNMPPEPDDPDLLARMQEGLSAVATNMIPLLRYQGFGGAGMDKEAAASWLSRRGLVPSQERIFVTPGAHPALLAIFGLLAKPGEMVLSENITYPGMRSIAAQLRLNLTGLPMDADGIIPGAFAEICETAKPKALYLNPTLQNPMTLTIPEKRREEICAVARKYHVPIVEDDAYGFIPLHSPAPLAAMAPDLTWHIGGLAKCIGAGLRLAYVVVPDTKAAWPFASAMRAASVMASPLSAALATRWIEDGTADSILRFIRTEAAARQALVAEVLPAGSYQSDPISFNIWLPLTNGWTRSTFGTHMRASGIGVVASDAFTVDGVAEEAVRVCLGGPIRRETLKGALEFMGHALEGSPQMAGTFF	not soluble
MGSDKIHHHHHHMKTYLVGGSVRDEILGLPVTDHDYVVVGVSPEEMVHLGFRPVGKDFPVFLHPQSQEQYALARTERKVSRGYKGFEVYASPEVTLQEDLARRDLTINAIAKDEYGNIIDPFGGIADLEAGVLRHIGPAFTEDPVRVLRTARFAARFGFHIAPETLALMNEMVHNGEVDALVSERVWQEIARGLMERHPSRMFYALRDCGALTRIMPEVDALFGVPQPPQHHPEIDTGVHVMMVIDYAASRNYSLQVRFAALTHDLGKGTTPPEEWPRHIGHEARSVRLVQGLCERINPPNEMRNLALLVARYHGDVHRAAELRPVTIANLLQGVDAYRKPERFEEFLQACACDFHGRPGYATRPYPQADRLREAFQAARSVDAGAIAKEMARNVSDPSRLPVAINTRVSETRIAEIRNRLGSLA	not soluble
MGSDKIHHHHHHMKVAIVHYWFVGMRGGEKVIEALCELYPQADIFTHVFVPEAVSDRIRRHRVTTSFINSLPRASSMYKSYLPLMPLALEHLDLSGYDLVISSESGPAKGIIPPPDALHVCYCHTPMRYIWNMYHDYRNGAGRLTKLLMPPLAHYLRMWDVSTASRVDSFIANSATVADRVRRYYRRDSVVIHPPVDTAVFTPVPASELGDYYLMAGELVAYKRPDLAVQAFNQIGRKLVVIGGGEMLNELKRIAGPNVTVMGSQPFEVLRHHYMHCRALIFPGEEDFGMVPVEAMAAGRPVIAFGKGGATETVVPGLSGLFFQAQEVEQIRSAILQLDDIEIDPAKISSHAARFGKQAFFDGFRSHIDQLLAAKAQATARNRG	not soluble
MGSDKIHHHHHHMKVAKFGGSSLASASQIKKVFDIVQADKQRKFIVVSAPGKRSGADTKVTDALIAYYKAYKSADEKGIHYYQNWIIERFREIYDELGLKSPVINQIAENINHLAQLDLDNVFTYDTFLAAGENNNAKLVADFFNHSGLPSRYVHPSDAGIMVSSDPGNARLLGGAYEHIKYLNELEETLIIPGFFGITKEGEVCTFSRGGSDITGSIIAAGVRAELYENFTDVNGIFAAHPGIVKNPAYISELTYREMRELAYSGFSVLHDEALVPAYRAHVPLVIKNTNNPDHPGTKIVVQRETKGSPVVGIASSSAFSSLYVSKYLMNREVGFGRKVLSVLENLGVRFEHMPTGIDDMSIIIRSRYLTQPISKALISNLTESLHPDEVYIDRDFSIITIVGEDMKEHVGVTARATAALSKQGISIAMLSQGSSEVSVMFIVKEKYEKEALKAIYSAFFD	not soluble
MGSDKIHHHHHHMKVLEGIRVLDFGRFIAGPFCAALLADFGADVIRIDRVGGSEDRFVAPVTSEGEGAFFLQVNRNKRSITLDLDSEEGQAVVRKLLLNTDVVVANMPPRTIAALGLDYESLRKVKPDIILTASSAFGADPAVRDRVGFDGVGQAMSGAVHLTGLPDHPMKSMVPVVDFSTALCCALGTMMALYERKSSGQGQEVGASLLHTALTLSSGSLIEEALRGLNRQATVNRSPTYGPSDIFRVKDGWIIAQVIGPAMFKRWTRMVGRPELLDDPRFADDAMRGEHGEVLSDIMSDWCAGRTREEALAILEGARIPGGPVNTPRQALEDEVVRASGAFHGVDYPGAAAQVPLVATPVSLSRTAPAIARRPPTAGEHTEEVLRDAGYAPGEIVALRERGVI	not soluble
MGSDKIHHHHHHMKVQYECLTCMANQCQRIVEMATQDMDIRRRAMILAAKLLAKEYNENAIPAIAGSLIFLELYKFLGNDDPFIEYKLKSEEMARKVADIIKRKLKLDFELAVKLAIIGNVIDFSVGFSPEDLEEEVEKMLKDKLYIDDSKELFEEVKRAENILYITDNVGEHYFDAILIEKIREISNAEVYIAGKEGPIINDATVEDLKRAGLEKLGKVISTGTRIVGVPLKLVSREFMEAFNKADVIIAKGQGNFETLSEINDSRIFFLLKAKCPAVARELKVPKGALVCMRNKFKL	soluble
